Results from US20210380703A1 (RIGEL PHARMACEUTICALS, published 2021).

Target: Human ACVR2A (on cells) (human, UniProt P27037 20-513)
Test: cell-based or functional assay

Sequence of Human ACVR2A (on cells) (P27037 20-513): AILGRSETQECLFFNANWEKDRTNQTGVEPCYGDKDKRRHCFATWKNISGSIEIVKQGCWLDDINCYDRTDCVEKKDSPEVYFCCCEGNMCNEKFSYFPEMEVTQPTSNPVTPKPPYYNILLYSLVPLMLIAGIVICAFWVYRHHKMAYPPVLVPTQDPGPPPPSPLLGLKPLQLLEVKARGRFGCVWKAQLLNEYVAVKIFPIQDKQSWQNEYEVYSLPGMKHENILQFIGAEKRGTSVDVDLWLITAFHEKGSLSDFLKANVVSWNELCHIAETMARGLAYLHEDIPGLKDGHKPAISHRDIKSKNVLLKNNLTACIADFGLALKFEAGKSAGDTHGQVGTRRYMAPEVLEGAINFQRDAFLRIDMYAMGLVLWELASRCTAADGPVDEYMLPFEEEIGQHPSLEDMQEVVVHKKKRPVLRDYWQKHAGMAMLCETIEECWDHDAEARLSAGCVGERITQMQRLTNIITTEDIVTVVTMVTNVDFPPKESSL

Binder | Phospho-SMAD3 Human Skeletal Muscle GDF8 (AlphaLisa, primary human myotubes)
375_G07 (antibody, V domains shown) VH: EVQLLESGGGLVQPGGSLRLSCAASGFTFDSYSMNWVRQAPGKGLEWVAGINYNSGYTSYADSVKGRFTISRDNSKNTLYLQMNSLRAEDTAVYYCARSATWHDTHLDYWGQGTLVTVSS VL: DIQMTQSPSSLSASVGDRVTITCRASQSILSYLNWYQQKPGKAPKLVIYAATSLASGVPSRFSGSGSGTDFTLTISSLQPEDFATYYCQQSYDLPLTFGGGTKVEIK | 0.0112
375_C12 (antibody, V domains shown) VH: EVQLLESGGGLVQPGGSLRLSCAASGFTFSSYSMNWVRQAPGKGLEWVANINYNGGYTGYADSVKGRFTISRDNSKNTLYLQMNSLRAEDTAVYYCARSATWHDTHLDYWGQGTLVTVSS VL: DIQMTQSPSSLSASVGDRVTITCRASQSILTYLNWYQQKPGKAPKLLIYAATSRASGVPSRFSGSGSGTDFTLTISSLQPEDFATYYCQQSYDLPLTFGGGTKVEIK | 0.0063
374_C11 (antibody, V domains shown) VH: EVQLLESGGGLVQPGGSLRLSCAASGFTFSSYSMNWVRQAPGKGLEWVAGINYNSGYKGYADSVKGRFTISRDNSKNTLYLQMNSLRAEDTAVYYCARSATWHDTHLDYWGQGTLVTVSS VL: DIQMTQSPSSLSASVGDRVTITCRASQSILTYLNWYQQKPGKAPKLLIYAATSRASGVPSRFSGSGSGTDFTLTISSLQPEDFATYYCQQSYESPLTFGGGTKVEIK | 0.0266
376_B01 (antibody, V domains shown) VH: EVQLLESGGGLVQPGGSLRLSCAASGFTFDSYSMNWVRQAPGKGLEWVAGINYNGGYTSYADSVKGRFTISRDNSKNTLYLQMNSLRAEDTAVYYCARSATWHDTHLDYWGQGTLVTVSS VL: DIQMTQSPSSLSASVGDRVTITCRASQSILTYVNWYQQKPGKAPKLVIYAATSRASGVPSRFSGSGSGTDFTLTISSLQPEDFATYYCQQSYNLPLTFGGGTKVEIK | 0.0086

Next, values leading:

Phospho-SMAD3 Human Skeletal Muscle GDF8 (AlphaLisa, primary human myotubes) | Binder
0.0086 | 374_A11 (antibody, V domains shown) VH: EVQLLESGGGLVQPGGSLRLSCAASGFTFSDYSMNWVRQAPGKGLEWVANINYNSGYKGYADSVKGRFTISRDNSKNTLYLQMNSLRAEDTAVYYCARSATWHDTHLDYWGQGTLVTVSS VL: DIQMTQSPSSLSASVGDRVTITCRASQSILSYVNWYQQKPGKAPKLVIYAATSRASGVPSRFSGSGSGTDFTLTISSLQPEDFATYYCQQSYSSPLTFGGGTKVEIK
0.0124 | 374_C05 (antibody, V domains shown) VH: EVQLLESGGGLVQPGGSLRLSCAASGFTFDSYSMNWVRQAPGKGLEWVAGINYNSGYKSYADSVKGRFTISRDNSKNTLYLQMNSLRAEDTAVYYCARSATWHDTHLDYWGQGTLVTVSS VL: DIQMTQSPSSLSASVGDRVTITCRASQSIIRYLNWYQQKPGKAPKLVIYAATSRASGVPSRFSGSGSGTDFTLTISSLQPEDFATYYCQQSYDNPLTFGGGTKVEIK
0.0318 | 375_A06 (antibody, V domains shown) VH: EVQLLESGGGLVQPGGSLRLSCAASGFTFSSYSMNWVRQAPGKGLEWVAGINYNSGYKGYADSVKGRFTISRDNSKNTLYLQMNSLRAEDTAVYYCARSATWHDTHLDYWGQGTLVTVSS VL: DIQMTQSPSSLSASVGDRVTITCRASQSILTYVNWYQQKPGKAPKLLIYAASSLQSGVPSRFSGSGSGTDFTLTISSLQPEDFATYYCQQSYSTPLTFGGGTKVEIK
0.0043 | 376_A06 (antibody, V domains shown) VH: EVQLLESGGGLVQPGGSLRLSCAASGFTFDSYSMNWVRQAPGKGLEWVSGINYNSGYTSYADSVKGRFTISRDNSKNTLYLQMNSLRAEDTAVYYCARSATWHDTALDYWGQGTLVTVSS VL: DIQMTQSPSSLSASVGDRVTITCRASQSILSYLNWYQQKPGKAPKLVIYYVSNRASGVPSRFSGSGSGTDFTLTISSLQPEDFATYYCQQSYDNPLTFGGGTKVEIK
